Source: patent publication US20220119534A1 (DRAGONFLY THERAPEUTICS, published 2022)
Numbering of substitutions follows the chain as printed. Names may count otherwise. “And” between values parts separate entries of the source, which are not always exact repeats. Equal entries are not always repeated. Values belong to the binder of their own block, whether it stands above or below them.

Experiments:
mFc-cNKG2D = biological target: T1, mFc-cNKG2D (cynomolgus monkey, UniProt P61252 73-216); test: SPR Biacore 37 C; mFc-tagged cyno NKG2D dimer, TriNKET as analyte; steady state affinity fit
T1 construct: extracellular domain; Made in house (Dragonfly Tx); also called recombinant cyno NKG2D extracellular domain (ECD); mFc-tagged cyno NKG2D dimer; not shown: mouse Fc tag
T1 sequence (looked up): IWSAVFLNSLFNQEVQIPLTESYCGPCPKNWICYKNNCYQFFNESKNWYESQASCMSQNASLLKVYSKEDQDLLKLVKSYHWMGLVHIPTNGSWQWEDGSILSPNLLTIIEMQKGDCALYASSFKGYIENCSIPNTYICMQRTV

Human CLEC12A-His [1] = biological target: T2, Human CLEC12A-His (human, UniProt Q5QGZ9 65-265); test: SPR Biacore 8K 37 C; TriNKET captured on anti-hFc chip, hCLEC12A-His as analyte; 1:1 fit; control sample, n=2
T2 construct: Recombinant soluble protein made in house (Dragonfly Tx); The hCLEC12A spot of the HuProt array is written under this molecule as well; also called hCLEC12A-His; hCLEC12A; not shown: His tag
T2 sequence: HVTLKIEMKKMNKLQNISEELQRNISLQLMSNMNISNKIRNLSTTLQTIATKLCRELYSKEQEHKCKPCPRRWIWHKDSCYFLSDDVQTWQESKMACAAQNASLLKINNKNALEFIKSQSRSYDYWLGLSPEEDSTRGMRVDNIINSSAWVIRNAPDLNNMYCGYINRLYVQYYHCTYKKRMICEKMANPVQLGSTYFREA

mFc-hNKG2D [2] = biological target: T3, mFc-hNKG2D (human, UniProt P26718 73-216); test: SPR Biacore 8K 37 C; mFc-hNKG2D captured on anti-mFc chip, TriNKET as analyte; steady state fit; pH 5.0 control
T3 construct: extracellular domain; Made in house (Dragonfly Tx); the order of tag and ECD follows the name mFc-hNKG2D; also called mFc-tagged human NKG2D; not shown: mouse Fc tag
T3 sequence (looked up): T1 sequence (looked up) with N43D, I133T

[3] = biological target: T4, Human CD16a V158 (FcγRIIIa V158) (human, UniProt P08637 17-208, biotinylated (site not stated)); test: SPR; biotinylated CD16a V158 captured on SA chip, TriNKET as analyte; 1:1 kinetic fit; after 4 wks 40 C in CST pH 7.0, n=3
T4 construct: V158 is the allele name in mature numbering; also called hCD16aV; hCD16a V158
T4 sequence (P08637 17-208 F176V limits assumed): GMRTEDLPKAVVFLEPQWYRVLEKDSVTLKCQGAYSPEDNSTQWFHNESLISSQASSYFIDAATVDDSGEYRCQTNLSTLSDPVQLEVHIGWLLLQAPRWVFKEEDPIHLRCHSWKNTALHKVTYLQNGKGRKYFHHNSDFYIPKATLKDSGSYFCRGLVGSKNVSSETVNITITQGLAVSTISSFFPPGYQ

Human CLEC12A-His [4] = biological target: T2, Human CLEC12A-His; test: SPR Biacore 8K 37 C; TriNKET captured on anti-hFc chip, hCLEC12A-His as analyte; 1:1 fit; after 4 wks 40 C in HST pH 6.0, n=2
Description: Briefly, human Fc specific antibodies were covalently immobilized at a density ˜8000-10000 resonance units (RU) on carboxy methyl dextran matrix of a CM5 biosensor chip via amine-coupling chemistry to create an anti-hFc IgG chip. […] Association was monitored for 300 seconds and dissociation was monitored for 600 seconds. Surfaces were regenerated between cycles with three pulses of 10 mM glycine-HCl, pH 1.7 injected for 20 seconds at 100 μL/min. HBS-EP+ (1×) with 0.1 mg/mL BSA buffer was used throughout the experiment. Data were analyzed using Biacore 8K Insight evaluation software (GE Healthcare). The kinetic rate constants and overall affinity were obtained using 1:1 kinetic fit binding model (FIGS. 71A-71B).

Human CD16a V158 = biological target: T5, Human CD16a V158 (human, UniProt P08637 17-208, biotinylated); test: SPR, hCD16a V158 captured, kinetic fit
T5 construct: Bought recombinant receptor; also called hCD16a (V158); hFcγRIIIa V158
T5 sequence (P08637 17-208 F176V limits assumed): as above

Human CD32a H131 = biological target: T6, Human CD32a H131 (human, UniProt P12318 36-218, limits assumed, biotinylated); test: SPR, steady state fit; average for AB0192
T6 construct: Bought recombinant receptor; also called hFcγRIIa H131
T6 sequence (looked up): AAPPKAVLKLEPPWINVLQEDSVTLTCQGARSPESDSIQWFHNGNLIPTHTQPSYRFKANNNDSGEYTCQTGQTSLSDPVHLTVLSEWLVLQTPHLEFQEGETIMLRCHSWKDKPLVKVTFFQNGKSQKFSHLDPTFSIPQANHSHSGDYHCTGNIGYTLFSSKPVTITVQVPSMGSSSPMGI

mFc-hNKG2D [5] = biological target: T7, mFc-hNKG2D (human, UniProt P26718 73-216); test: SPR, 37 C, mFc-hNKG2D captured, 1:1 kinetic fit
T7 construct: extracellular domain; Recombinant mFc-tagged NKG2D dimer, made in house; also called human NKG2D; not shown: mouse Fc tag
T7 sequence (looked up): T1 sequence (looked up) with N43D, I133T

[6] = biological target: T8, Human CLEC12A-His (recombinant, K244 WT) (human, UniProt Q5QGZ9 65-265); test: SPR, two-state fit; control sample
T8 construct: Made in house (Dragonfly Tx); also called hCLEC12A; hCLEC12A-His; not shown: His tag
T8 sequence: T2 sequence

[7] = biological target: T8, Human CLEC12A-His (recombinant, K244 WT); test: SPR 37C, two-state fit (kd1), average
Description: Briefly, human Fc specific antibodies were covalently immobilized at a density ˜8000-10000 resonance units (RU) on carboxy methyl dextran matrix of a CM5 biosensor chip via amine-coupling chemistry to create an anti-hFc IgG chip. […] Association was monitored for 300 seconds and dissociation was monitored for 600 seconds. Surfaces were regenerated between cycles with three pulses of 10 mM glycine-HCl, pH 1.7 injected for 20 seconds at 100 μl/min. HBS-EP+ (1×) with 0.1 mg/ml BSA was used as running buffer throughout the experiment. Experiments were performed at physiological temperature of 37° C. To obtain kinetic rate constants and overall binding affinity, double-referenced data were fit to a two-state kinetic model using Biacore 8K Insight Evaluation software (Cytiva).

[8] = biological target: T9, human CLEC12A expressed on cells (human, UniProt Q5QGZ9 1-265); test: flow cytometry, HL60
T9 construct: Transduced isogenic cells or endogenous expression on AML cells; also called RMA-hCLEC12A; Ba/F3-hCLEC12A
T9 sequence: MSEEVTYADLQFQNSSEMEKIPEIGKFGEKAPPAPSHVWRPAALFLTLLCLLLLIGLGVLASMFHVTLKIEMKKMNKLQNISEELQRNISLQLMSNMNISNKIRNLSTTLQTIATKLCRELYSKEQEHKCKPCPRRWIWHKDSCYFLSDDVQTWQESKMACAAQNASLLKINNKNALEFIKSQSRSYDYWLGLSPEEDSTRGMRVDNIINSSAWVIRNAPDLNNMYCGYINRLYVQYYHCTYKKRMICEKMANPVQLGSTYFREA

recombinant human CD32b = biological target: T10, recombinant human CD32b (human, UniProt P31994 46-217, limits assumed, biotinylated); test: SPR 25C, steady state, average
T10 construct: also called FcγRIIb
T10 sequence (looked up): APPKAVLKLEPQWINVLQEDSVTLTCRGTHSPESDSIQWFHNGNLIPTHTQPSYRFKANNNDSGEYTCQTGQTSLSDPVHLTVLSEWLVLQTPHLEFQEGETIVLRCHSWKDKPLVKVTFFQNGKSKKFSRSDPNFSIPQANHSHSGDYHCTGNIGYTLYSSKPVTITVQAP

[9] = biological target: T9, human CLEC12A expressed on cells; test: flow cytometry, hCLEC12A+ Ba/F3

- Kd (Human CD16a V158): 184 nM and 173 nM and 177 nM
- koff (Human CD16a V158): 0.019 s⁻¹ and 0.0201 s⁻¹ and 0.0206 s⁻¹
- kon (Human CD16a V158): 103000 M⁻¹ s⁻¹ and 116000 M⁻¹ s⁻¹
- Kd (Human CD32a H131): 1010 nM
- koff (mFc-hNKG2D [5]): 0.143 s⁻¹ and 0.153 s⁻¹
- kon (mFc-hNKG2D [5]): 186000 M⁻¹ s⁻¹ and 196000 M⁻¹ s⁻¹ and 181000 M⁻¹ s⁻¹
B2: AB0192 TriNKET (other)
chain: EVQLVESGGGVVQPGGSLRLSCAASGFTFNAFGMHWVRQAPGKCLEWVAFISSGSTSIYYANTVKGRFTISRDNSKNTLYLQMNSLRAEDTAVYYCARDGYPTGGAMDYWGQGTSVTVSSGGGGSGGGGSGGGGSGGGGSDIQMTQSPSSLSASVGDRVTITCKASQDIYNYLSWFQQKPGKAPKPLIYRANILVSGVPSRFSGSGSGQDYTFTISSLQPEDIATYYCLQFDAFPFTFGCGTKLEIKGSDKTHTCPPCPAPELLGGPSVFLFPPKPKDTLMISRTPEVTCVVVDVSHEDPEVKFNWYVDGVEVHNAKTKPREEQYNSTYRVVSVLTVLHQDWLNGKEYKCKVSNKALPAPIEKTISKAKGQPREPRVYTLPPCRDELTKNQVSLTCLVKGFYPSDIAVEWESNGQPENNYKTTPPVLVSDGSFTLYSKLTVDKSRWQQGNVFSCSVMHEALHNHYTQKSLSLSPG
heavy: EVQLVESGGGLVKPGGSLRLSCAASGFTFSSYSMNWVRQAPGKGLEWVSSISSSSSYIYYADSVKGRFTISRDNAKNSLYLQMNSLRAEDTAVYYCARGAPIGAAAGWFDPWGQGTLVTVSSASTKGPSVFPLAPSSKSTSGGTAALGCLVKDYFPEPVTVSWNSGALTSGVHTFPAVLQSSGLYSLSSVVTVPSSSLGTQTYICNVNHKPSNTKVDKKVEPKSCDKTHTCPPCPAPELLGGPSVFLFPPKPKDTLMISRTPEVTCVVVDVSHEDPEVKFNWYVDGVEVHNAKTKPREEQYNSTYRVVSVLTVLHQDWLNGKEYKCKVSNKALPAPIEKTISKAKGQPREPQVCTLPPSRDELTENQVSLTCLVKGFYPSDIAVEWESNGQPENNYKTTPPVLDSDGSFFLYSWLTVDKSRWQQGNVFSCSVMHEALHNHYTQKSLSLSPG
light: DIQMTQSPSSVSASVGDRVTITCRASQGISSWLAWYQQKPGKAPKLLIYAASSLQSGVPSRFSGSGSGTDFTLTISSLQPEDFATYYCQQGVSFPRTFGGGTKVEIKRTVAAPSVFIFPPSDEQLKSGTASVVCLLNNFYPREAKVQWKVDNALQSGNSQESVTEQDSKDSTYSLSSTLTLSKADYEKHKVYACEVTHQGLSSPVTKSFNRGEC
notes: the condition stands under assay; also called AB0192 Lot AB0192-005

- Kd [6]: 0.9 nM
- koff [7]: 0.0435 s⁻¹
B3: AB0089 TriNKET (bispecific antibody, human IgG1, kappa)
chain: QLQLQESGPGLVKPSETLSLTCTVSGFSLTNYGLHWIRQPPGKCLEWIGVIWVGGATDYNPSLKSRVTISVDTSKNQFSLKLSSVQAADTAVYYCAKGDYGDTLDYWGQGTLVTVSSGGGGSGGGGSGGGGSGGGGSDIQMTQSPSSLSASVGDRVTITCHASQNINFWLSWYQQKPGKAPKLLIYEASNLHTGVPSRFSGSGSGTDFTLTISSLQPEDFATYYCQQSHSYPLTFGCGTKLEIKGSDKTHTCPPCPAPELLGGPSVFLFPPKPKDTLMISRTPEVTCVVVDVSHEDPEVKFNWYVDGVEVHNAKTKPREEQYNSTYRVVSVLTVLHQDWLNGKEYKCKVSNKALPAPIEKTISKAKGQPREPRVYTLPPCRDELTKNQVSLTCLVKGFYPSDIAVEWESNGQPENNYKTTPPVLVSDGSFTLYSKLTVDKSRWQQGNVFSCSVMHEALHNHYTQKSLSLSPG
heavy: B2 heavy
light: B2 light
notes: F3' format heterodimer of three chains; human IgG1 Fc with EW-RVT and Y349C/S354C mutations; also called AB0089 Lot AB0089-002; CLEC12A TriNKET AB0089

Further lines, the binder ahead of its results:

B1: F3'-1602 TriNKET (bispecific antibody, human IgG1, kappa)
chain: B3 chain with V53S, A56K, V71K, G98Y, G101D, T103S, D207R, F220I
heavy: B2 heavy
light: B2 light
notes: Trispecific F3' format: CLEC12A scFv-Fc paired with NKG2D Fab-Fc; Stressed and control samples of the stability studies are the same molecule; also called AB0237
- Kd (mFc-cNKG2D): 829 nM and 828 nM and 935 nM and 719 nM
- Kd (Human CLEC12A-His [1]): 0.98 nM
- koff (Human CLEC12A-His [1]): 0.000735 s⁻¹
- kon (Human CLEC12A-His [1]): 750000 M⁻¹ s⁻¹
- Kd (mFc-hNKG2D [2]): 684 nM
- Kd [3]: 213 nM
- koff [3]: 0.0225 s⁻¹
- kon [3]: 105000 M⁻¹ s⁻¹
- Kd (Human CLEC12A-His [4]): 1.69 nM
- koff (Human CLEC12A-His [4]): 0.00214 s⁻¹
- kon (Human CLEC12A-His [4]): 1.24e+06 M⁻¹ s⁻¹

B4: F3'-1602 TriNKET (other)
chain: B3 chain with V53S, A56K, V71K, G98Y, G101D, T103S, D207R, F220I
heavy: B2 heavy
light: B2 light
notes: CLEC12A scFv-Fc, NKG2D A49MI Fab-Fc, human IgG1 Fc; also called AB0237
- EC50 [8]: 1.1 nM
- Kd (recombinant human CD32b): 6600 nM
- EC50 [9]: 14.4 nM
- Max MFI [9]: 50200 MFI
